In IntAct's records for PubMed 28515320:

B1: Nectin-2 (Homo sapiens), Q92692 (parent)
chain: MARAAALLPSRSPPTPLLWPLLLLLLLETGAQDVRVQVLPEVRGQLGGTVELPCHLLPPVPGLYISLVTWQRPDAPANHQNVAAFHPKMGPSFPSPKPGSERLSFVSAKQSTGQDTEAELQDATLALHGLTVEDEGNYTCEFATFPKGSVRGMTWLRVIAKPKNQAEAQKVTFSQDPTTVALCISKEGRPPARISWLSSLDWEAKETQVSGTLAGTVTVTSRFTLVPSGRADGVTVTCKVEHESFEEPALIPVTLSVRYPPEVSISGYDDNWYLGRTDATLSCDVRSNPEPTGYDWSTTSGTFPTSAVAQGSQLVIHAVDSLFNTTFVCTVTNAVGMGRAEQVIFVRETPNTAGAGATGGIIGGIIAAIIATAVAATGILICRQQRKEQTLQGAEEDEDLEGPPSYKPPTPKAKLEAQEMPSQLFTLGASEHSPLKTPYFDAGASCTEQEMPRYHELPTLEERSGPLHPGATSLGSPIPVPPGPPAVEDVSLDLEDEEGEEEEEYLDKINPIYDALSYSSPSDSYQGKGFVMSRAMYV
partner: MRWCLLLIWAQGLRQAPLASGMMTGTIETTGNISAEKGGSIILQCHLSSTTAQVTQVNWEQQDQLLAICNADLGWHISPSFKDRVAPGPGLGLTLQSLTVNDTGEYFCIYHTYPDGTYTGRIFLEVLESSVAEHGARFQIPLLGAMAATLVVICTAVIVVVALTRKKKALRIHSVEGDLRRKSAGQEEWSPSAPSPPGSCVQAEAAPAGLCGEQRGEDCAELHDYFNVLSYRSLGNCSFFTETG

Variants of: B1
Conditions: with tigit_human TIGIT

Variant	effect of a mutation on the interaction
H86A	decreasing interaction strength
G90A	decreasing interaction strength
L67Q	decreasing interaction strength
L67A	decreasing interaction strength
E101A	with no effect
E141A	with no effect
A83R	decreasing interaction strength
A83V	decreasing interaction strength
M89A	decreasing interaction strength
F145A	disrupting interaction strength
